The results in this text go back to the DeepSol protein solubility set.

This data set can be described thus: soluble on expression in E. coli; label from the status in PepcDB or PDB records.
On to “MLGVGKIGGAIVKSLLSCGAVVTGTGRRRETLERISRLGAEATVDNRLAAKVSDVVILSVKPYQLPRLLEEIRDVMEGKIVVSVVAGVRLSTLSRALEGSHVYRAMPNINALIGRSTTAVAEYTGDKRASFVESILSCMGSVYWIPEEWMDVWTALVGSMPAYVAVMIDSLTLGGVSAGLPREVAFKAVIDTLGATAEHLGKRDIHPSVLRDEVTTPAGTTIEGLKVIEGEGVDAALIRTVEAAARRAAAIGEAIDNEVRRSLNLRAAALEHHHHHH”, for which the “soluble on expression in E. coli” value is “not soluble”.

Take “MKLPARVFFTLGSRLPCGLAPRRFFSYGTKILYQNTEALQSKFFSPLQKAMLPPNSFQGKVAFITGGGTGLGKGMTTLLSSLGAQCVIASRKMDVLKATAEQISSQTGNKVHAIQCDVRDPDMVQNTVSELIKVAGHPNIVINNAAGNFISPTERLSPNAWKTITDIVLNGTAFVTLEIGKQLIKAQKGAAFLSITTIYAETGSGFVVPSASAKAGVEAMSKSLAAEWGKYGMRFNVIQPGPIKTKGAFSRLDPTGTFEKEMIGRIPCGRLGTVEELANLAAFLCSDYASWINGAVIKFDGGEEVLISGEFNDLRKVTKEQWDTIEELIRKTKGS”: the “soluble on expression in E. coli” value was “soluble”.

Regarding “MGSDKIHHHHHHMATTVDTGDRRDNGKSVRRKLPRGAHAEIGNVDRDPVELLKISSEGRVRRLVPLRYGRMIESPFAFYRGSAIVQAHDLAGTPNSGLHIQICGDCHLANFGGFATPERALLFDLNDFDETSRGPWEWDLKRLAASFVVAARHLRHKQGVADDLVYQLVRSYQARMQGYGEMGILDTWYDHITFERLLGEETSPNIQRRIRRGMERAADRTSEALLPKLAERVGDKWTILDAPPAVFHVRGAHTLFDADDDWMTAKDIQAAAEKVYKEYLGTLAPDRQRLLSHFTLHDRAFKVVGVGSVGTRCMIQLMIDSHGKPMFLQIKEATRSVVARYFKGPAVSHDGRRVVEGQRLMQAASDLFLGWTKGPFGRDFYVRQLRDMKLSPQIELMDVEALGRYGALCGWVLARAHAKAGGLAAEISGYLGTSDRMAEVMVGYSNSYADQVEKDYERFVAACRSGRLEARTDADMAADFRV”, the “soluble on expression in E. coli” value is listed as “not soluble”.

Take “MGSDKIHHHHHHMLLHFVPINVFRETPQVSFFDAGVNGSNGADVVIHHKNAISPPDDGNFEQYYIHNHQVDHNLVIEGSRKFTLINPKWDEPHHVIFLNRAMGALQIPIGTYHRSESGKEGSIVLNQATRDDMFDQRKEFSPVSLRSNKQLRKARQAHPVYWIWEEERIKRVKLDCKGYSKNIKLEPLKTAH”: the “soluble on expression in E. coli” value is on record as “not soluble”.

Take “MVRVCACLIVKNEAAHLARCLGSVQPWVDDIVVVDTGSTDETPAIARQFTERLFTFPWQDDFAAARNYSLEQATGDWILVIDADEVLVTLQEPPVPLGQQLAGSPFTAYQLLRREIGTGEQFSDFAIVRLFRNLPTLRYQGRFHEQLVSTAAAPLTIGTLETLRIDHYGYQPAQIQAKMRDRNIPILERIRASEGLPLHLLFALADMYQAVNNPVEAENCYQELFDRLLPHLLSGQLPENAPGALPEILNQLGRRLLATGDHDTLQLLCQQGLAWFPTYPPLNDLAGRWLMTLGFPLGATAYFEYCLELGRTNGYSKQMIFPLGYVREIAAEQLGRAYEALGDRERAAAAFAQAAALRQGKAHPQLEHHHHHH”: the “soluble on expression in E. coli” value was “soluble”.

For “MGSDKIHHHHHHMDLTQLRMFCLVAETGSVARAAEQLHRVPSNLTTRLRQLELELGTDLFIREKQRLRLSPIGHNFLCYAQRILALSEEAISMTRTGEPAGNFALGSMESTAATRLPTLLAAYHQRYPNVSLSLNTGTSGEIIERVRAGTLAAALVDGPVVYDELNGCSCFAEQLVLISDPSHSPITHARDASNDTLFAFRPSCSYRKRLENWFRQDGVVPGTIMEIHSYHAMLACVASGSGLAMLPYAVLESLPAGARVQVHELPPDIAAASTWLVWRRDAFGPNVEALKKLIIEQSAQSE”, the “soluble on expression in E. coli” value is “not soluble”.

Consider “MILITLLKDGVGEKMRIVFDLGGSVVMPKEGAKAEKIMEYANIFKKIKDEGHEVAIVVGGGKTAREYIEIGRELGASESFCDELGIMATRMNAMILITALGDYSIKKVPTSFEEAELILNLGKIPVMGGTHPGHTTDAVAASLAEFINADLLVIGTNVDGVYDKDPNKYEDAKKFDKMSAKELVDLAISSSLKAGSSSVVDLLAAKIIERAKLKVAVVKGTPEELLNVSKGIINGTIIEG”, for which the “soluble on expression in E. coli” value is given as “soluble”.

For the sequence “LVRGGWLWRQSSILRRWKRNWFALWLDGTLGYYHDETAQDEEDRVVIHFNVRDIKVGQECQDVQPPEGRSRDGLLTVNLREGSRLHLCAETRDDAIAWKTALMEANSTPAPAGATVP”, the “soluble on expression in E. coli” value is listed as “soluble”.

As to “MMNLRSIAMNKPDLVIFFDGQCPLCCNEMRALKTADHQARILLVDVHDTDTMSCYPSIDKQRALSILHGIDQQGQLLYGLDVTVLAWRLVNRHRWLFITRMPILKGISDRMYLLFAKHRMRLSRWFGQTQCQEGVCQKKLEHHHHHH”, the “soluble on expression in E. coli” value is listed as “soluble”.

On to “MSFEYNEKVLDHFLNPRNVGVLEDANGVGQCGNPACGDAMLFTIKVNPENDVIEDVRFKTFGCGSAIAVSSMLTEMVKGKPIQYALNLTYKDIFEELGGLPPQKIHCTNLGLETLHVAIKDYLMKQGRVEEASKIPDCYEEEEEQEESKEFEFLSGTLEHHHHHH”, for which the “soluble on expression in E. coli” value is recorded as “soluble”.

“MAVKHASAPKAYINITGLGFAKLTKEGAELKYSDITKTRGLQKIGVETGGELKTAYADGGPIESGNTDGEGKISLQMHAFPKEIRKIVFNEDYDEDGVYEEKQGKQNNYVAVWFRQERRDGTFRTVLLPKVMFTNPKIDGETAEKDWDFSSEEVEGEALFPLVDNKKSVRKYIFDSANMTNHGGDGEKGEEAFLKKILGEEYTGNVTEDNEETLLEHHHHHH”: the “soluble on expression in E. coli” value was “soluble”.

For the sequence “MGSDKIHHHHHHMIMIRQLTPADFDAVITLGEIVHGSGYMDIAELTAIYHKGIKNGINANFVALENEQLIGFRLTYAAGQWPQDQWCTVDKWGVKFEDVCYFKSNTIAESGRGQGLGGKLLAASKAAVIAQGAKAGVSHLWQQSPNNAAVRYFTKAGGKLIKQHPQRWHQRYMGDDYICVLCGEDCHCVACEMLLLF”, the “soluble on expression in E. coli” value is “not soluble”.

As for “MELISVTKDNLEQEHICCAISNNKDCQVLSKKNWLNEQFEDGLVFLKGNVRGKCFIEYMPAEKAWAPVEADGYMYINCLWVSGQFKGQGYSNLLLEECIRDSREKGRLGLVVLTSKKKMPYLSDPKFLGYKGFIRADSAEPYFELFYLPFEADAPKPQFKEQVRQPRTEENGFVLYYTRQCPFTAKYVPLIESAAEENNIPFKAVLFKTSGEARNAPAPFTTYSLFYNGRFITNEILSEKRFEKILEAEGLG”, the “soluble on expression in E. coli” value is listed as “not soluble”.

Turning to “MGSDKIHHHHHHMKVICITQARMGSSRLPGKVLKIIGTRPMLEYHVRRVAKSKLINHHIIATSNQENDLPIVEYCQQNNIDYYRGNETDVLGRFYETALSVHAEPDDIIIRLTGDCPLICPQLIDDAIKLQFSGESQQYTHVSLAYFPRGFDVEVFRMRSLSEAYFKALAPAQREHVTLYLYSKPDALIVPVTLHGNPSWSHFRLCVDEQDDFLLVEQLICRLGEQWLDAGPRQICELLEGNPQLVTINAHIHQRTAH”, the “soluble on expression in E. coli” value is recorded as “not soluble”.

For the sequence “MGSDKIHHHHHHMVMEYELRTPLVKDQILKLKVGDVVYITGEIFTARDEAHARALEWMEEGKELPFSFDKGVVYHCGPLVKKNDEWRVVSAGPTTSARMNPFTPKILEKVECMGIIGKGGMSEEVVEAMRGKAAYFAFTGGAGALAAMSIKKVKGVVWEDLGMPEAVWLLEVERFGPCIVAIDAHGNSLYRR”, the “soluble on expression in E. coli” value is reported as “soluble”.

Turning to “MAHHHHHHMDEKSEINYDEGADPSYSMHMSESHSAYEEVNKTSSDSEFVDDDYSKVISENNLESDNVKYNPDLYNLGKARQYLCPKVQEYGIPGQVSPYHFPYNEEDYLSNVDTEYDENGFPIRTNIDDNDNNEDNKKLWSWTNDGKLKLLCSQPIIPVSVVQGILRRDKIILIPQVEVTDVVIPKVYNQNIKHDVPTLNIEIMKSNVNIPNVKYVDKEIIIPIITGYTHKFVPKWDIHEVPRPVVKYIGEQKIVEVEVPEIKYIDKFVEREVIVDTVEKRVPKIIEVPKYVDEVKYVWKPIEKIVYVQKLIPKFDVNLECPPPLIVPYPVQRIKQISPVMVKKNNTEIPDYNYYDLNSPEGSLPIPEEYIHHYSRKQKMNKGLLSTCCDKKIVTEEEKNVQFVSVPLSNEHESVCVDEEIKKNINMSQENINTQLNNNMDNFIYDSDIKKNKDKMNSSINGKQQLYINS”, the “soluble on expression in E. coli” value was “not soluble”.

With “MAHHHHHHMKRGNEVAREMWAPSTWEQRMSLAGQFTTFCRTHEQPINEESRAALLVAILDVAPPTRPQHARMLRSMLEMNRTPLGMAILGLQKLAARSETRQARSLTKEGMDQFIRSRIDWNQRVVFRLACMTASRWSGIAALTPNNATLEADGTIILDWSVAPKTARADPHRAPRFVGIRGRDALDTITLCRTLQENEKLTNVTNAKVERALAPWDATAHSIKRGALRHAAQIVETCNLDPHVISQLAKHVDPFVLPQNTVRYFWKYTTVLTQVLPLVVLM”, the “soluble on expression in E. coli” value is “not soluble”.

Take “MQTGNGEYHMGNTMTKAIYEKFKSATPYGNTVATGAIPTETVDIAVNVGGFKVGDQNYPINPKVTFTNNTGQDIPGGTEFQFDIPVSAPDNAKDQSGGGLQVIASGHTRPNNIGGLDGTMHRVAFTLPAWKALPAGGVYELDMVYYLPISGPANYTVNINNVDYAFKFEQPDLPLADLSSLEHHHHHH”: the “soluble on expression in E. coli” value was “soluble”.

Take “MGSDKIHHHHHHMDKYTALIHDENFSTLTLNVSRYPKSLAYWEKLLNYIVKASAPICKSTEPQLLKLIRCTYSSMLNEFPYLENYYIDFALLEYKLGNVSMSHKIFQRGLQAFNQRSLLLWTSYLKFCNNVISHQKQLFKKYETAEEYVGLHFFSGEFWDLYLEQISSRCTSSKKYWNVLRKILEIPLHSFSKFYALWLQRIDDIMDLKQLSQLTSKDELLKKLKIDINYSGRKGPYLQDAKKKLKKITKEMYMVVQYQVLEIYSIFESKIYINYYTSPETLVSSDEIETWIKYLDYTITLQTDSLTHLNFQRALLPLAHYDLVWIKYSKWLINSKNDLLGAKNVLLMGLKFSLKKTEIIKLLYSVICKLNEYVLLRNLLEKIESSYSDNVENVDDFEIFWDYLQFKTFCQNSLYSSRYSDSQSNGLLNKELFDKVWKRLSCKEKKSGQEILLNNLVQFYSKDTVEFVEKNIFQKIIEFGWEYYLQNGMFWNCYCRLIYFDTSRSYLDKRQYIVRKIWPQIDKKFAQSVLPSLTEFCESYFPEEMDTLEEMFTEEP”: the “soluble on expression in E. coli” value is listed as “not soluble”.

Turning to “GMSPQSMLTSPQHPRRTTMVISHGTLSASAEHAAHLRQLLVHIAQATRQEDGCLLYLVSEDLSQPGHFLITEHWDNLGAMHTHLALPGVTQAIDALKHLNVTDLKITAYEAGEAINIMG”, the “soluble on expression in E. coli” value is listed as “soluble”.
